Results reported in US20190078065A1, “MODIFIED DNA POLYMERASES” (SIGMA-ALDRICH CO. LLC, priority 2017, published 2019).

Tests used:
Type in all cases: biochemical
[1] = tested on: 3′-O-carbamate or ester blocked nucleotides; test: incorporation of 3′-O-blocked nucleotides, mutant vs. wild type polymerase, quantified by densitometry; settings: for rates of incorporation of 3′-O-carbamate or ester blocked nucleotides as compared to wild type (WT) Hs PolM: densitometry
From the text: The incorporation of 3′-O-carbamate or ester blocked nucleotides by the PolM-loop1 chimera, Hs PolM-Lp1, or the truncated PolM-loop1 chimera, Hs tPolM-Lp1 was compared to that of wild type Hs PolM. The amount of incorporation was quantified by densitometry.

[2] = tested on: 3′-O-blocked adenosine 5′-triphosphates; test: incorporation of 3′-O-blocked adenosine, comparison with Bt TdT
[3] = tested on: 3′-O-carbamate or ester blocked nucleotides; test: template-free DNA synthesis reaction: incorporation of 3′-O-blocked nucleotides; settings: template-independent, dNTP1, 2, 3, 5, 6 of Table 2; FIG. 5
From the text: The ability of the PolM-loop1 chimera, Hs PolM-Lp1, to incorporate 3′-O-blocked nucleotides was examined in a template-free DNA synthesis reaction.

Molecule | Fold increase Hs tPolM-Lp1 vs. Hs PolM-Lp1 ([1]; Blocking group 1) | Fold increase Hs tPolM-Lp1 vs. Hs PolM-Lp1 ([1]; Blocking group 2) | Fold increase Hs tPolM-Lp1 vs. Hs PolM-Lp1 ([1]; Blocking group 3) | Fold increase Hs tPolM-Lp1 vs. Hs PolM-Lp1 ([1]; Blocking group 5) | Fold increase Hs tPolM-Lp1 vs. Hs PolM-Lp1 ([1]; Blocking group 6 (artificial base-5SICS)) | Fold increase Hs tPolM-Lp1 vs. Hs PolM-Lp1 ([1]; Blocking group 6 (standard base)) | rates of incorporation of 3′-O-carbamate or ester blocked nucleotides as compared to wild type (WT) Hs PolM [1] | increase in incorporation relative to Bt TdT [2] | incorporation of 3′-O-carbamate or ester blocked nucleotides [3]
Hs tPolM-Lp1: Homo sapiens PolM, Loop 1 domain swap and N-terminal truncation (Δ 1-108) (protein) MLGAGQPVPVECRHRLEVAGPRKGPLSPAWMPAYACQRPTPLTHHNTGLSEALEILAEAAGFEGSEGRLLTFCRAASVLKALPSPVTTLSQLQGLPHFGEHSSRVVQELLEHGVCEEVERVRRSERYQTMKLFTQIFGVGVKTADRWYREGLRTLDDLREQPQKLTQQQKAGLQHHQDLSTPVLRSDVDALQQVVEEAVGQALPGATVTLTGGFRRGKLQGHDVDFLITHPKEGQEAGLLPRVMCRLQDQGLILYHQHQESTFEKLRLPSRKVDALDHFERSFCIFRLPQPPGAAVGGSTRPCPSWKAVRVDLVVAPVSQFPFALLGWTGSKLFQRELRRFSRKEKGLWLNSHGLFDPEQKTFFQAASEEDIFRHLGLEYLPPEQRNA | 2.2 Fold | 2.1 Fold | 2.0 Fold | 1.3 Fold | 3.0 Fold | 2.0 Fold | significantly increased | 2.7 fold | 
Hs PolM-Lp1: Homo sapiens PolM, Loop 1 domain swap (protein) MLPKRRRARVGSPSGDAASSTPPSTRFPGVAIYLVEPRMGRSRRAFLTGLARSKGFRVLDACSSEATHVVMEETSAEEAVSWQERRMAAAPPGCTPPALLDISWLTESLGAGQPVPVECRHRLEVAGPRKGPLSPAWMPAYACQRPTPLTHHNTGLSEALEILAEAAGFEGSEGRLLTFCRAASVLKALPSPVTTLSQLQGLPHFGEHSSRVVQELLEHGVCEEVERVRRSERYQTMKLFTQIFGVGVKTADRWYREGLRTLDDLREQPQKLTQQQKAGLQHHQDLSTPVLRSDVDALQQVVEEAVGQALPGATVTLTGGFRRGKLQGHDVDFLITHPKEGQEAGLLPRVMCRLQDQGLILYHQHQESTFEKLRLPSRKVDALDHFERSFCIFRLPQPPGAAVGGSTRPCPSWKAVRVDLVVAPVSQFPFALLGWTGSKLFQRELRRFSRKEKGLWLNSHGLFDPEQKTFFQAASEEDIFRHLGLEYLPPEQRNA |  |  |  |  |  |  | significantly increased |  | successfully incorporated
